Earlier results, collected in publication PMC8416071.

Target: Spike protein (SARS-CoV) (UniProt P59594)
Experiment: ITC

For Griffithsin (from UniProt P84801), the Kd is given as 24.9 nM.
